Test results reported in paper PMC3888107.
pKd: −log10 of the molar value.

Legend:
[1] = target: PR20, extreme drug-resistant mutant of mature HIV-1 protease (HIV-1); experiment: enzyme activity against protease concentration
[2] = target: PR, mature HIV-1 protease containing the mutations Q7K, L33I, L63I, C67A, C95A (HIV-1); experiment: differential scanning calorimetry
[3] = target: ScPR, single-chain dimer of two PR monomers linked by a GGSSG sequence (HIV-1); experiment: differential scanning calorimetry

Substance	pKd [1]	ΔTm (I), Tm(+inhibitor)-Tm(−inhibitor) [2] [°C]	ΔTm (I), Tm(+inhibitor)-Tm(−inhibitor) [3] [°C]
PR20, extreme drug-resistant mutant of mature HIV-1 protease (enzyme)	7.54	–	–
RPB, substrate (CA/SP1) analogue inhibitor H-Arg-Val-Leu-(r)-Phe-Glu-Ala-Nle-NH2 (peptide)	–	9.2	7.8
